Data: patent publication US20250076311A1 (Chugai, published 2025)

Experiments:
[1] = molecular target: T1, GST-hMSTN 61-160aa (human, UniProt O14793 61-160); test: Western blot with the antibody as probe on GST-tagged 100-amino-acid fragments of the human latent myostatin propeptide expressed in E. coli BL21 (lanes 1-8), GST control (lane 9) and human latent myostatin 100 ng (lane 10)
T1 sequence: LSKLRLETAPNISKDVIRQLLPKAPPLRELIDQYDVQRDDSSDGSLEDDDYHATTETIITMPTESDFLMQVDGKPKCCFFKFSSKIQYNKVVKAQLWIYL
Source text: (§1) Fragments of the N-terminal propeptide coding region of human latent myostatin were cloned into a pGEX4.1 vector so as to produce GST tagged propeptide fragments of 100 amino acid each, with 80 amino acid overlap (FIG. 22A). Protein expression was induced in transformed BL21 competent cells with Overnight Express Autoinduction System (Merck Millipore) and protein was extracted using the BUGBUSTER® protein extraction reagent (Novagen).

[2] = molecular target: T2, GST-hMSTN 81-180aa (human, UniProt A1C2U3 81-180 (Pongo pygmaeus entry)); test: as above
T2 sequence: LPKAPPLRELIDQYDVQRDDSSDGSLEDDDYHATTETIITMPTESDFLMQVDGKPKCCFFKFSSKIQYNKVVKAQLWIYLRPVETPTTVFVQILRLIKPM
Source text: as §1

[3] = molecular target: T3, GST-hMSTN 101-200aa (human, UniProt A1C2U3 101-200 (Pongo pygmaeus entry)); test: as above
T3 sequence: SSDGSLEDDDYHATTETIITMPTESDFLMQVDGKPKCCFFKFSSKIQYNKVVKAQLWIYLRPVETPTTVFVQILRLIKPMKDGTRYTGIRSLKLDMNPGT
Source text: as §1

[4] = molecular target: T4, GST-hMSTN 41-140aa (human, UniProt O14793 41-140); test: as above
T4 sequence: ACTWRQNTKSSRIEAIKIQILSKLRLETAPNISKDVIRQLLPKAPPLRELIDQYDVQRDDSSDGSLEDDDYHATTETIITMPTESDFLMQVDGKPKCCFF
Source text: as §1

[5] = molecular target: T5, Human latent myostatin (human, UniProt O14793 25-266; O14793 267-375); test: ELISA: biotinylated antigen (4 nM) on streptavidin-coated plate, antibody titrated, anti-human IgG-HRP, ABTS, OD405
T5 construct: Biotinylated in the ELISAs; also called human myostatin latent form
T5 sequence 1: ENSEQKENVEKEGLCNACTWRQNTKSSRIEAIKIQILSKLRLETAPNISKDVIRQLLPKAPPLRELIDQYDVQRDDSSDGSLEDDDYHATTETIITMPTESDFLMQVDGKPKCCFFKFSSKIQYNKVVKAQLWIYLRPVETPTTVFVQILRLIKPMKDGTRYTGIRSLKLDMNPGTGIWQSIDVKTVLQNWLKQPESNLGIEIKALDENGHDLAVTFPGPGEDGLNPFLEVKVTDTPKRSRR
T5 sequence 2: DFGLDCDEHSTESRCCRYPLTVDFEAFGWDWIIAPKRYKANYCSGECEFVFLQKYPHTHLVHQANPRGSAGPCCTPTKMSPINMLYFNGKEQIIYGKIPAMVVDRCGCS
Experimental: (§2) Uncoated ELISA plates (NUNC-IMMUNO plate MAXISORP surface, Nalge Nunc International) were coated with 20 μL of 50 nM streptavidin (GenScript) for 1 hour at room temperature. Plates were then washed with PBST three times and blocked with 50 μL 20% Blocking One (Nacalai Tesque) overnight. On the next day, each well of each plate was incubated with biotinylated mature myostatin, human or mouse biotinylated latent myostatin, or biotinylated recombinant mouse myostatin propeptide-Fc chimera protein (R&D Systems) at 4 nM/well/20 μL for 2 hours. After washing, 20 μL of antibody sample was added to the wells and the plates were left for 1 hour. The plates were washed and 20 μL of anti-human IgG-horseradish peroxidase (HRP) (Abcam) diluted in HEPES-buffered saline was added, and the plates were left for another hour. The plates were then washed again, and then 50 μL ABTS (KPL) was added to each well, and the plates were incubated for 1 hour.

[6] = molecular target: T6, Mouse latent myostatin (mouse, UniProt O08689 26-267; O08689 268-376, limits assumed); test: as above
T6 sequence 1: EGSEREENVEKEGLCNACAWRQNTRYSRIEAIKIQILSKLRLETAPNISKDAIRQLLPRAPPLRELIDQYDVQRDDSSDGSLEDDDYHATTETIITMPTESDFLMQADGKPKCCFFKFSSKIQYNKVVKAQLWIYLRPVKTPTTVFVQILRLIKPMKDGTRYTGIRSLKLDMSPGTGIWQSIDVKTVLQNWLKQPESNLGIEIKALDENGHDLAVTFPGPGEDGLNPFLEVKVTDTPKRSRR
T6 sequence 2: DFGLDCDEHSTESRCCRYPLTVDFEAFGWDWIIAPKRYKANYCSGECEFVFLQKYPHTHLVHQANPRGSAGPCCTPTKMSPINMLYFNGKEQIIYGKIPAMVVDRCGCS
Experimental: as §2

[7] = molecular target: T7, Mature myostatin (human, UniProt O14793 267-375); test: as above
T7 construct: Disulfide-bonded homodimer; Biotinylated in the ELISA; also called human myostatin mature form; active myostatin
T7 sequence: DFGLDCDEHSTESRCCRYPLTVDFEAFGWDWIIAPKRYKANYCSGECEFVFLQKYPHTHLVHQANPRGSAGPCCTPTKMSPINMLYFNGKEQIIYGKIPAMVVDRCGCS
Experimental: as §2

[8] = molecular target: T5, Human latent myostatin; test: ELISA: biotinylated human latent myostatin (2 nM) on streptavidin-coated plate, antibody titrated, anti-human IgG-HRP, ABTS, OD405
Experimental: Uncoated ELISA plates (NUNC-IMMUNO plate MAXISORP™ surface, Nalge Nunc International) were coated with 20 μL of 50 nM streptavidin (GenScript) for 2 hour at room temperature. Plates were then washed with PBST three times and blocked with 50 μL 20% Blocking One (Nacalai Tesque) for overnight. On the next day, each well of the plates was incubated with biotinylated human latent myostatin at 2 nM/well/20 μL or biotinylated human latent GDF11 at 20 nM/well/20 μL for 2 hours. After washing, 20 μL of antibody sample was added to the wells and the plates were left for 1 hour. The plates were washed and 20 μL of anti-human IgG-horseradish peroxidase (HRP) (Abcam) diluted in HEPES-buffered saline was added, and the plates were left for another hour. The wells were washed again, and then 50 μL ABTS (KPL) was added to each well, and the plates were incubated for 1 hour.

[9] = molecular target: T8, cynomolgus monkey FcγRIIIaS extracellular domain, His-tagged (cynomolgus monkey, UniProt Q8SPW2 21-206 at identity 1.00)); test: SPR Biacore, KD(SG1)/KD(variant)
T8 construct: also called cyno FcγRIIIaS; cynoFcγRIIIaS; not shown: C-terminal His-tag
T8 chain: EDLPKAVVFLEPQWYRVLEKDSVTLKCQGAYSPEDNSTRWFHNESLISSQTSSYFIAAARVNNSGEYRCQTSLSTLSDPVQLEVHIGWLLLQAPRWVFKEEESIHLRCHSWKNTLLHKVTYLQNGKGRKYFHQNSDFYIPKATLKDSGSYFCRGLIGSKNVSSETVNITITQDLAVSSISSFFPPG

[10] = molecular target: T9, human FcγRIIb extracellular domain, His-tagged (human, UniProt P31994 43-217); test: SPR Biacore, KD(SG1)/KD(variant)
T9 construct: also called FcgRIIb (human); not shown: C-terminal His-tag
T9 sequence: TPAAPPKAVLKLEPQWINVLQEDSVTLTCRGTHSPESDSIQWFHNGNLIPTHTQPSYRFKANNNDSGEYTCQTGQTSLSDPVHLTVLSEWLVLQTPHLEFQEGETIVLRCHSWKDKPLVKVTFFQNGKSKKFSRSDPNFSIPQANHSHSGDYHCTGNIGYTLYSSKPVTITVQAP

[11] = molecular target: T10, cynomolgus monkey FcγRIIa1 extracellular domain, His-tagged (cynomolgus monkey); test: SPR Biacore, KD(SG1)/KD(variant)
T10 construct: also called cyno FcγRIIa1; cynoFcgRIIa1; not shown: C-terminal His-tag
T10 chain: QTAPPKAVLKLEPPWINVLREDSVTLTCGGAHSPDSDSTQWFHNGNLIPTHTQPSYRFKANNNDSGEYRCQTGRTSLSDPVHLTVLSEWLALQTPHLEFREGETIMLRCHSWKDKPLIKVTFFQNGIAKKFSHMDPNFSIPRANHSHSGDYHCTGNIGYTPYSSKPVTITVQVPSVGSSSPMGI

[12] = molecular target: T11, human FcγRIIaH extracellular domain, His-tagged (human, UniProt P12318 34-217); test: SPR Biacore, KD(SG1)/KD(variant)
T11 construct: also called human FcγRIIa (type H); FcgRIIaH; not shown: C-terminal His-tag
T11 sequence: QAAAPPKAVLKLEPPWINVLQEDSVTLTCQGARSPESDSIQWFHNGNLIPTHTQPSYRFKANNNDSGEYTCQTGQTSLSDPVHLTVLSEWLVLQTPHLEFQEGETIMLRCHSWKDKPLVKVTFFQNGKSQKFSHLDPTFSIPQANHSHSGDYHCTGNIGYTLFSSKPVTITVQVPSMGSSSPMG

B1: MST1573 (antibody, human IgG1, kappa, V domains shown)
VH: QSVEESGGRLVTPGTPLTLTCTVSGIDLSSSSMIWVRQAPGEGLKYIGFISKSGYTYYASWAKGRFTISKTSTTVDLKITSPTTEDTATYFCARGGYSGDWDYFTLWGPGTLVTVSS
VL: DIVMTQTPASVEAAVGGTVTIKCQASESIGNALAWYQQKPGQPPKLLIYGAFNLESGVPSRFRGSGSGTEYTLTISDLECDDAATYYCQGYFWSSSTIYAFWAFGGGTKVEIKR
notes: Constant regions as for MST1504
[1]
  binding result: no binding
[2]
  binding result: no binding
[3]
  binding result: no binding
[4]
  binding result: no binding

B2: MS_MST1032Ha-G1m/MST1032La-k0MC (antibody, human IgG1, kappa, V domains shown)
VH: QSLEESGGRLVTPGGSLTVTCRVSGIDLSSYDISWVRQAPGKGLEWIGIISYAGSTYYASWAKGRFTISKTSTTVDLKMTSLTTEDTATYFCARGVPAYSTGGDLWGPGTLVTVSS
VL: AQVLTQTASSVSAAVGGTVTINCQSSQSVYDNNWLSWFQQKPGQPPKLLIYWASTLASGVPSRFKGSGSGTQFTLTISDLECDDAATYYCAGGYGGGLYAFGGGTKVEIKR
notes: Rabbit/human chimeric antibody; also called MST1032-G1m
[5]
  EC50 (read off the curve): ~0.008 µg/mL
[6]
  EC50 (read off the curve): ~0.01 µg/mL
[7]
  binding result: no binding (tested: 10 ng/µL (log 1))
[8]
  EC50 (read off the curve): ~0.02 µg/mL

B3: M103205H795-MY068/M103202L889-SK1 (antibody, human IgG1, kappa, name in EU numbering)
heavy: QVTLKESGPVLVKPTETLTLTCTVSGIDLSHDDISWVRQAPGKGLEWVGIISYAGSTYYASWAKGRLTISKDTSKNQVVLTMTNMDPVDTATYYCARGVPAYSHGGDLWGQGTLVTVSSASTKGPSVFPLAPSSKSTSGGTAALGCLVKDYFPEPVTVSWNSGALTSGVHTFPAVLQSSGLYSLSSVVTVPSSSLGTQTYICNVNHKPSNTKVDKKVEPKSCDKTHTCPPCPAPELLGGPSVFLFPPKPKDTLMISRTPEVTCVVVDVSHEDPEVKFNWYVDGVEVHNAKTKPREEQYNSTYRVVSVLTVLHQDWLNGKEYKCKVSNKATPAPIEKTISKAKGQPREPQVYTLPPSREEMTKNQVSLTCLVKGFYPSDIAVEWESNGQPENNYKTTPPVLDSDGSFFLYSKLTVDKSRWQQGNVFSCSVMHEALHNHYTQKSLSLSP
light: DIVMTQSPATLSLSPGERATLSCTSSQSVYHANWLSWFQQKPGQPPKLLIYWASTLAYGVPSRFSGSGSGTDFTLTISSLQPEDAATYYCAGGYGGGRYAFGQGTKVEIKRTVAAPSVFIFPPSDEQLKSGTASVVCLLNNFYPREAKVQWKVDNALQSGNSQESVTEQDSKDSTYSLSSTLTLSKADYEKHKVYACEVTHQGLSSPVTKSFNRGEC
notes: Substitution introduced into M103205H795-SG1; EU numbering
[9]
  KD fold (SG1 = 1): 0.62 fold
[10]
  KD fold (SG1 = 1): 2.2 fold

B4: M103205H795-MY124/M103202L889-SK1 (antibody, human IgG1, kappa, name in EU numbering)
heavy: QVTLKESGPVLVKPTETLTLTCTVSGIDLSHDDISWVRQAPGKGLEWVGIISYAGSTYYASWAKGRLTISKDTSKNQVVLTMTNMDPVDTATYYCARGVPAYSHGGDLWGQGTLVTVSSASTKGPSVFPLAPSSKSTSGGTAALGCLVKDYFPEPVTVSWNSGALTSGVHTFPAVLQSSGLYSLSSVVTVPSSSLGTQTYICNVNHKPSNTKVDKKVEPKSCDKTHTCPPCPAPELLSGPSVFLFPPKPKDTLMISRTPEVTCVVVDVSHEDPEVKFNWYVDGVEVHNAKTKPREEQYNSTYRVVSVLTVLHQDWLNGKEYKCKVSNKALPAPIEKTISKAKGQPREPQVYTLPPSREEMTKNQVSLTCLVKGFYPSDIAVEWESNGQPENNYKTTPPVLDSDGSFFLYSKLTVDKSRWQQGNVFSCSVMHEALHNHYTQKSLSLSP
light: DIVMTQSPATLSLSPGERATLSCTSSQSVYHANWLSWFQQKPGQPPKLLIYWASTLAYGVPSRFSGSGSGTDFTLTISSLQPEDAATYYCAGGYGGGRYAFGQGTKVEIKRTVAAPSVFIFPPSDEQLKSGTASVVCLLNNFYPREAKVQWKVDNALQSGNSQESVTEQDSKDSTYSLSSTLTLSKADYEKHKVYACEVTHQGLSSPVTKSFNRGEC
notes: as for B3
[11]
  KD fold (SG1 = 1): 1.2 fold
[12]
  KD fold (SG1 = 1): 4.5 fold
